Results as given in patent publication US20260069656A1, “Nutritive Polypeptides and Formulations Thereof, and Methods of Production and Use Thereof” (Axcella Health Inc., priority 2013, published 2026).

B1: SEQID-00420: nutritive polypeptide (protein)
chain: AAAPLEKRSCTFTSASAAKSGKSSCSTITLDNIAVPAGETLDLTGLKKGTTVIFEGETTFGYKEWKGPLISMSGTDITVKQASGAKINCDGARWWDGKGSNGGKTKPKFFQAHKLDQSSITGLKVYNTPVQGFSILADHLTITDVTIDNSAGTSKGHNTDAFDIGQSTYITIDGATVYNQDDCLAINSGEHITFTNGYCDGGHGLSIGSIGGRSDNTVNDVTISNSKVLNSQNGVRIKTIYGKTGTVENVKFEDITLSDISKYGIVVEQDYENGSPTGTPTNGVKVEDITFKKVTGSVKSSGTDIYILCGSGSCSNWTWSGVDVTGGKKSSKCKNVPSGASCSD
modifications: Aspergillus niger; strain CBS 513.88 / FGSC A1513
B2: SEQID-00418: nutritive polypeptide (protein)
chain: VPRVRRQGASSSFDYKSQIVRGVNLGGWLVTEPWITPSLYDSTGGGAVDEWTLCQILGKDEAQAKLSSHWSSFITQSDFDRMAQAGLNHVRIPIGYWAVAPIDGEPYVSGQIDYLDQAVTWARAAGLKVLVDLHGAPGSQNGFDNSGHRGPIQWQQGDTVNQTMTAFDALARRYAQSDTVTAIEAVNEPNIPGGVNEDGLKNYYYGALADVQRLNPSTTLFMSDGFQPVESWNGFMQGSNVVMDTHHYQVFDTGLLSMSIDDHVKTACSLATQHTMQSDKPVVVGEWTGALTDCAKYLNGVGNAARYDGTYMSTTKYGDCTGKSTGSVADFSADEKANTRRYIEAQLEAYEMKSGWLFWTWKTEGAPGWDMQDLLANQLFPTSPTDRQYPHQCS
modifications: Aspergillus niger; strain CBS 513.88 / FGSC A1513
B3: SEQID-00418 (E. coli): nutritive polypeptide (protein)
chain: VPRVRRQGASSSFDYKSQIVRGVNLGGWLVTEPWITPSLYDSTGGGAVDEWTLCQILGKDEAQAKLSSHWSSFITQSDFDRMAQAGLNHVRIPIGYWAVAPIDGEPYVSGQIDYLDQAVTWARAAGLKVLVDLHGAPGSQNGFDNSGHRGPIQWQQGDTVNQTMTAFDALARRYAQSDTVTAIEAVNEPNIPGGVNEDGLKNYYYGALADVQRLNPSTTLFMSDGFQPVESWNGFMQGSNVVMDTHHYQVFDTGLLSMSIDDHVKTACSLATQHTMQSDKPVVVGEWTGALTDCAKYLNGVGNAARYDGTYMSTTKYGDCTGKSTGSVADFSADEKANTRRYIEAQLEAYEMKSGWLFWTWKTEGAPGWDMQDLLANQLFPTSPTDRQYPHQCS
modifications: Aspergillus niger; strain CBS 513.88 / FGSC A1513
B4: SEQID-00001: nutritive polypeptide (protein, listed as Gallus gallus)
chain: MGSIGAASMEFCFDVFKELKVHHANENIFYCPIAIMSALAMVYLGAKDSTRTQINKVVRFDKLPGFGDSIEAQCGTSVNVHSSLRDILNQITKPNDVYSFSLASRLYAEERYPILPEYLQCVKELYRGGLEPINFQTAADQARELINSWVESQTNGIIRNVLQPSSVDSQTAMVLVNAIVFKGLWEKAFKDEDTQAMPFRVTEQESKPVQMMYQIGLFRVASMASEKMKILELPFASGTMSMLVLLPDEVSGLEQLESIINFEKLTEWTSSNVMEERKIKVYLPRMKMEEKYNLTSVLMAMGITDVFSSSANLSGISSAESLKISQAVHAAHAEINEAGREVVGSAEAGVDAASVSEEFRADHPFLFCIKHIATNAVLFFGRCVSP
B5: SEQID-00001 (HEK293): nutritive polypeptide (protein, listed as Gallus gallus)
chain: MGSIGAASMEFCFDVFKELKVHHANENIFYCPIAIMSALAMVYLGAKDSTRTQINKVVRFDKLPGFGDSIEAQCGTSVNVHSSLRDILNQITKPNDVYSFSLASRLYAEERYPILPEYLQCVKELYRGGLEPINFQTAADQARELINSWVESQTNGIIRNVLQPSSVDSQTAMVLVNAIVFKGLWEKAFKDEDTQAMPFRVTEQESKPVQMMYQIGLFRVASMASEKMKILELPFASGTMSMLVLLPDEVSGLEQLESIINFEKLTEWTSSNVMEERKIKVYLPRMKMEEKYNLTSVLMAMGITDVFSSSANLSGISSAESLKISQAVHAAHAEINEAGREVVGSAEAGVDAASVSEEFRADHPFLFCIKHIATNAVLFFGRCVSP
modifications: expressed in HEK293
B6: SEQID-00672 (BS): nutritive polypeptide (protein, listed as Saccharomyces cerevisiae)
chain: MSSSESIRMVLIGPPGAGKGTQAPNLQERFHAAHLATGDMLRSQIAKGTQLGLEAKKIMDQGGLVSDDIMVNMIKDELTNNPACKNGFILDGFPRTIPQAEKLDQMLKEQGTPLEKAIELKVDDELLVARITGRLIHPASGRSYHKIFNPPKEDMKDDVTGEALVQRSDDNADALKKRLAAYHAQTEPIVDFYKKTGIWAGVDASQPPATVWADILNKLGKD
modifications: strain ATCC 204508 / S288c
B7: SEQID-00678 (BS): nutritive polypeptide (protein, listed as Saccharomyces cerevisiae)
chain: MSSSESIRMVLIGPPGAGKGTQAPNLQERFHAAHLATGDMLKSQIAKGTQLGLEAKKIMDQGGLVSDDIMVNMIKDELTNNPACKNGFILDGFPRTIPQAEKLDQMLKEQGTPLEKAIELKVDDELLVARITGRLIHPASGRSYHKIFNPPKEDMKDDVTGEALVQRSDDNADALKKRLAAYHAQTEPIVDFYKKTGIWAGVDASQPPATVWADILNKLGKD
modifications: strain ATCC 204508 / S288c
B8: SEQID-00546: protein of the 168 nutritive polypeptide library (protein, listed as Saccharomyces cerevisiae)
chain: MCSAGGIRRPIQIEEFKTAISGMSDMELAQIKTEIENSINHLQRSNARLGKYIAKLEGADDRLEADDSDDLENIDSGDLALYKDSVRENEIVLNNYNERVDALEQETVYRKTGHGKSKHEVEAKDNTNKGPDVDMDNSNVDVVTPNSIFI
modifications: strain ATCC 204508 / S288c
B9: SEQID-00690: engineered secreted variant of SEQID-00407 enriched in essential amino acids which retains enzymatic activity (protein, listed as Bacillus subtilis)
chain: ETANKSNELTAPSIKSGTILHAWNWSFNTLKHNMKDIHDAGYTAIQTSPINQVKEGNQGDKSMSNWYWLYQPTSYQIGNRYLGTEQEFKEMCAAAEEYGIKVIVDAVINHTTSDLVGVLSNEVKSIPNWTHGNTQIKNWSDRWDVTQNSLLGLYDWNTQNTQVQSYLKRFLDRALNDGADGFRFDAAKHIELPDDGSYGSQFWPNITRVVMEFQYGEILQDSASRDAAYANYMDVTASNYGHSIRSALKNRNLGVSNIVMYILRVSADKLVTWVESHDTYANDDEESTWMSDDDIRLGWAVIASRSGSTPLFFSRPEGGGNGVRFPGKSQIGDRGSALFEDQAITAVNRFHNVMAGLPKRLSNPNGNNQIFMNQRGSHGVVLANAGSSSVSINTATKLPDGRYDNKAGAGSFQVNDGKLTGTINARSVAVLYPDDIAKAPHVFLENYKTGVTHSFNDQLTITMRADANTTKAVYQINNGPETAFKDGDQFTIGKGDPFGKTYTIMLKGTNSDGVTRTEKYSFVKRDPASAKTIGYQNPNHWSQVNAYIYKHDGSRVIELTGSWPGKPMTKNADGIYTLTLPADTDTTNAKVIFNNGSAQVPGQNQPGFDYVLNGLYNDSGLSGSLPH
modifications: strain 168

Assay: Intact half-life during simulated gastric fluid (SGF) digestion
Details: SGF pH 1.5, pepsin:polypeptide 1:20 w/w, 37° C.; produced in E. coli unless otherwise noted
Description: Nutritive polypeptide half-life during simulated digestion. One metric for quantifying the breakdown of polypeptides from an intact form to smaller peptides is the intact half-life. In this experiment the nutritive polypeptide was exposed to a series of proteases that are active in the stomach (pepsin) and intestine (trypsin and chymotrypsin), and the presence of intact protein was measured over time. Specifically, the nutritive polypeptide was first treated at a concentration of 2 g/L with simulated gastric fluid (SGF) (0.03 M NaCl, titrated with HCl to pH 1.5 with a final pepsin: polypeptide ratio of 1:20 w/w) at 37° C. Time points were sampled from the reaction and quenched by addition of 0.2 M Na2CO3. […] Time points were sampled from the reaction and quenched by addition of Trypsin/Chymotrypsin Inhibitor (Sigma) solution until 240 min.
Time point samples were analyzed for intact protein by chip electrophoresis, polyacrylamide gel electrophoresis, or western blot. For chip electrophoresis (Labchip GX II), samples were analyzed using a HT Low MW Protein Express LabChip® Kit (following the manufacturer's protocol). A protein ladder was loaded every 12 samples for molecular weight determination (kDa) and quantification. For polyacrylamide gel electrophoresis, samples (1 μg) were separated on a NuPAGE® Novex® Bis-Tris Precast gel (Life Technologies) according to the manufacturer's protocol. The gel was stained using SimplyBlue™ SafeStain (Invitrogen) and imaged using a Chemidoc XRS+ (BioRad) or transferred onto nitrocellulose membranes using the iBlot® Dry Blotting System (Life Technologies) and iBlot® Western Detection Kit (Life Technologies) according to the manufacturer's protocol. Proteins were detected by blotting with Anti-His [C-term]-HRP antibody diluted 3:5000 in Blok™-PO Blocking Buffer using the SNAP i.d.® Protein Detection System (Millipore) according to the manufacturer's protocol. Blots were treated with Luminata Classico Western HRP Substrate (Millipore) according to the manufacturer's protocol and imaged using chemiluminescent detection on the Molecular Imager® Gel Doc™ XR+ System (Bio-Rad). Quantification of intact protein was determined by densitometry using ImageLab (BioRad). For all analysis methods the relative concentration of the polypeptide at each time point (if detected) was plotted overtime and fit to an exponential curve to calculate the intact half-life.
Specifically, the t=0 (enzyme-free control) and t=2 min samples from the SGF digest were analyzed for intact protein as described by chip electrophoresis, SDS-PAGE, western blot, and/or LC-MS/MS. Relative quantities of polypeptides at each time point were determined and the percentage of intact protein remaining at t=2 was determined.

Molecule | SGF Half-life (t½) [min]
B1 | 1.2
B2 | 0.2
B3 | 0.5
B4 | 5
B5 | 8.6
B6 | 0.3
B7 | 0.2
B8 | <10
B9 | 4.4
